We go through one compound from patent US12540161B2, “Linkers” (BicycleTx Limited, priority 2020, dated 2026).

Data set [1] is described as follows: Plasma stability analysis, mouse plasma. Particulars: plasma, BTCs.
Another data set addresses Cathepsin B (Homo sapiens, UniProt P07858). The data set is described as follows: Cathepsin B (CatB) cleavage assay. To be noted: BTCs. Type of data set: biochemical.
The conditions of data set [2]: rat.
The next data set has as its system HT1080 cells. To be noted: 1 mg/kg and 3 mg/kg.
Data set [3] in a line: in vivo. To be noted: male, CD-1, mouse, plasma, intravenous.
Method: Male CD-1 mice were dosed with each Bicycle Conjugate formulated in 25 mM histidine HCl, 10% sucrose pH 7 via tail vein injection. Serial bleeding (about 80 μL blood/time point) was performed via submadibular or saphenous vein at each time point. All blood samples were immediately transferred into prechilled microcentrifuge tubes containing 2 μL K2-EDTA (0.5M) as anti-coagulant and placed on wet ice. Blood samples were immediately processed for plasma by centrifugation at approximately 4° C., 3000 g. The precipitant including internal standard (350 μL) was immediately added into the 35 μL plasma sample, mixed well and centrifuged at 3220 g, 4° C. for 15 minutes. The supernatant was transferred into pre-labeled polypropylene microcentrifuge tubes, and then quick-frozen over dry ice. The samples were stored at 70° C. or below as needed until analysis. Supernatant samples were mixed with 50 μL water, vortexed well and centrifuged at 3220 g, 4° C. for 15 minutes. A sample of the supernatant was injected for LC-MS/MS analysis using an Acquity UPLC with AB Sciex 6500+ Triple Quad MS in positive ion mode to determine the concentrations of Bicycle Conjugate and released payload. Plasma concentration versus time data were analyzed by non-compartmental approaches using the Phoenix WinNonlin 6.3 software program. C0, Cl, Vdss, T1/2, AUC(0-inf), MRT(0-last), MRT(0-inf) nd graphs of plasma concentration versus time profile were reported.
The nature of data set [4]: in vivo. Particulars: rat, plasma.
Data set [5] is described as follows: in vitro. Particulars: rat, plasma, pH 7.4.
Method: (§1) Pooled frozen plasma was thawed in a water bath at 37° C. Plasma was centrifuged at 4000 rpm for 5 min and the clots were removed if any. The pH will be adjusted to 7.4±0.1 if required. 1 mM stock solution was prepared with DMSO. Propantheline (positive control) was prepared by making a 100 μM working solution by diluting 5 μL of the stock solution (10 mM) with 495 μL ultra pure water. 100 μM working solutions of test compounds were made up by diluting 10 μL of the stock solution (1 mM) with 90 μL DMSO. 98 μL of blank plasma was spiked with 2 μL of dosing solution (100 μM) to achieve 2 μM of the final concentration in duplicate and samples were incubated at 37° C. in a water bath. At each time point (0, 1, 2, 4, 6 and 24 hr), 400 μL of 200 ng/mL tolbutamide and labetalol in 100% MeOH was added and mixed thoroughly to precipitate proteins. Sample plates were centrifuged at 4,000 rpm for 15 min. An aliquot of supernatant (150 μL) was transferred from each well before submitting for LC-MS/MS analysis.
(§2) The % remaining test compound after incubation in plasma was calculated using following equation: Remaining=100×(PAR at appointed incubation time/PAR at T0 time)
(§3) where PAR is the peak area ratio of analyte versus internal standard (IS).
(§4) The appointed incubation time points are T0 (0 hr), Tn (n=0, 1, 2, 4, 6, 24 hr). The half-life (T½) was calculated from a log linear plot of concentration versus time.
(§5) When the % remaining value at the maximal incubation time, which was 24 hr in this study, was higher than 75%, it is considered to be within the acceptable experimental variation.
Data set [6] is described as follows: in vitro. Particulars: human, plasma, pH 7.4.
Method: as §1, §2, §3, §4, §5
Data set [7] is described as follows: in vitro. Particulars: mouse, plasma.
Data set [8] can be described thus: in vitro. To be noted: cynomolgus monkey, plasma.

SMILES strings stand for the structures.

Method for HT1080 cells: For Cell-Derived Xenograft (CDX) models, mice (balb/c nude, female, 18-23 g at study start) were inoculated with HT1080 cells (5.0×10^6 cells/mouse in 0.2 ml PBS to the right flank). Animals were randomized when the average tumour volume reached the pre-designated start size. Group size is n=4. All studies included a vehicle-treated control.
Dosing was conducted by intravenous bolus. Tumor volume was measured in two dimensions using a caliper, and the volume was expressed in mm^3 using the formula: V=0.5 a×b^2 where a and b are the long and short diameters of the tumor, respectively.

As a reminder, the Vd is a proportionality between amount in the body and measured concentration, not a real space. A high value points to extensive tissue distribution. Broadly, the clearance is the rate of elimination divided by the concentration. A low value points to inefficient removal. As usually defined, the fraction unbound is free concentration divided by total concentration. High values mean weak binding, low ones extensive binding. For the compound `CC[C@H](C)[C@@H]([C@@H](CC(=O)N1CCC[C@H]1[C@H](OC)[C@@H](C)C(=O)N[C@H](C)[C@@H](O)c1ccccc1)OC)N(C)C(=O)[C@@H](NC(=O)[C@H](C(C)C)N(C)C(=O)OCc1ccc(NC(=O)[C@H](CCCNC(N)=O)NC(=O)[C@H](Cc2cccc3ccccc23)NC(=O)[C@H](CCC(=O)O)NC(=O)Cn2cc(CCC(=O)NCCC(=O)N(C)CC(=O)N(C)CC(=O)N(C)CC(=O)N(C)CC(=O)N(C)CC(=O)N(C)CC(=O)N(C)CC(=O)N(C)CC(=O)N(C)CC(=O)N(C)CC(=O)N[C@@H](C)C(=O)N[C@H]3CN(C)Cc4cc5cc(c4)CN(C)C[C@@H](C(N)=O)NC(=O)[C@H](C(C)(C)C)NC(=O)[C@H](CC(=O)O)NC(=O)[C@H](Cc4ccc(O)cc4)NC(=O)[C@H](Cc4ccccc4)NC(=O)[C@H](CC(=O)O)NC(=O)[C@H](CCC(=O)O)NC(=O)[C@H](CSC5)NC(=O)[C@@H](C)NC(=O)[C@H](Cc4cccc5ccccc45)NC(=O)[C@H](CCC(=O)O)NC(=O)[C@H](CC(N)=O)NC(=O)[C@@H](C)NC3=O)nn2)cc1)C(C)C` [BCY10984, MMAE-PAB-(Cit-1Nal-Glu)-BCY3900], the half-life at 2 μM is greater than 57.8 h in [1] (pH 7.4, Mouse plasma t1/2 (EDTA), EDTA anticoagulant); 47.5 h in [1] (pH 7.4, Mouse plasma t1/2 (Herparin), heparin anticoagulant); 53.8 h in “in vitro [5]”; greater than 57.8 h in “in vitro [6]”. In addition, the “% Parent remaining after incubation with CatB, 0 h” value on Cathepsin B (0 h) was found to be 100%. The “% Parent remaining after incubation with CatB, 1 h” value at Cathepsin B (1 h) came out at 94.498%. Moreover, the “% Parent remaining after incubation with CatB, 2 h” value at Cathepsin B (2 h) stood at 83.5%. Further, the “% Parent remaining after incubation with CatB, 4 h” value at Cathepsin B (4 h) was determined as 39.2%. The “% Parent remaining after incubation with CatB, 6 h” value on Cathepsin B (6 h) was 33.4%. The “% Parent remaining after incubation with CatB, 24 h” value on Cathepsin B (24 h) is given as 32.5%. Moreover, the half-life at 40 μM at Cathepsin B (read-out: CatB t1/2 (converted)) was 3.3 h. Besides, the AUC ratio in data set [2] came out at 0.0000936. The “Body weights of the animals” value with HT1080 cells was “not affected”. The C0 in the data set “in vivo [3]” amounted to 112 µg/mL. The same compound showed a Vd in the data set “in vivo [3]” of 0.09 L/kg. This compound also displayed a clearance in the data set “in vivo [3]” of 0.2 mL/min/kg. The half-life is 7.55 h in the data set “in vivo [3]” and 1.83 h in the data set “in vivo [4]”. Moreover, the fraction unbound came to 0.002 in the data set “in vitro [7]” and 0.092 in “in vitro [8]”.
